Legend:
Experiment in all cases: Tox-Luc (ToxR-TM-MBP) TM domain dimerisation assay in E. coli, luciferase read-out
[1] = target: YT/LL mutated human CD28 TM domain in the ToxLuc construct (ToxR-TM-MBP); conditions: parent: est. 23000; read off a plot
[2] = target: mutant GpA (G83I) TM domain in the ToxLuc construct (ToxR-TM-MBP); conditions: parent: est. 5500; read off a plot
[3] = target: Y145L/T150L (YT/LL) mutated mouse CD28 TM domain in the ToxLuc construct (ToxR-TM-MBP); conditions: read off a plot

## WT human CD28 TM domain in the ToxLuc construct (ToxR-TM-MBP) YT/LL
[1]
  response (Relative Light units): 2900

## wild type (WT) GpA TM domain in the ToxLuc construct (ToxR-TM-MBP) G83I
[2]
  response (Relative Light units): 700

## WT mouse CD28 TM domain in the ToxLuc construct (ToxR-TM-MBP) Y145L; T150L
[3]; parent: est. 2500
  response (Relative Light units): 270
[3]; parent: est. 19000
  response (Relative Light units): 3100

— article PMC7378745
